Measurements taken from patent publication US20250154198A1, “PEPTIDE INHIBITORS OF INTERLEUKIN-23 RECEPTOR” (Zealand Pharma A/S, priority 2021, published 2025).
*1 amine or outer side, *2 acyl side, *3 side chain or, on linkers, in order; H or OH if unused. Bridges are numbered along the chain shown (N, C = ends). Primed or numbered codes have the meaning given here. Where no end group is shown, it is not given here. [ ]: non-standard residue; d: D form. 4‑Aminomethyl‑phenylacetyl = 4-aminomethyl-phenylacetyl unit, its amine closes the lactam, O=C(Cc1ccc(CN[*:1])cc1)[*:2]; 1,3‑dibromopropan‑2‑one = linker (CAS 816-39-7) joining two Cys as 1,3-dithio-propan-2-one bridge -SCH2C(=O)CH2S-; Q(pyrrolidin)″ = (2S)-2-amino-5-oxo-5-pyrrolidin-1-yl-pentanoic acid, O=C(CC[C@H](N[*:1])C(=O)[*:2])N1CCCC1; 1,3‑dibromopropan‑2‑one(3) = linker giving 1,3-dithio-propan-2-one bridge -SCH2C(=O)CH2S- between Cys; 4‑Aminomethyl‑phenylacetyl″ = N-terminal cap residue, O=C(Cc1ccc(CN[*:1])cc1)[*:2]; Ala(quinolin-3-yl) = N[C@@H](Cc1cnc2ccccc2c1)C(=O)O; Phe(3,4-Me2) = Cc1ccc(C[C@H](N)C(=O)O)cc1C; 2Nal = N[C@@H](Cc1ccc2ccccc2c1)C(=O)O; AEF = NCCOc1ccc(C[C@H](N)C(=O)O)cc1; 3Pal = N[C@@H](Cc1cccnc1)C(=O)O; d3Pal = N[C@H](Cc1cccnc1)C(=O)O; αMeL = CC(C)C[C@](C)(N)C(=O)O; αMeV = CC(C)[C@](C)(N)C(=O)O; 3Amb = NCc1cccc(C(=O)O)c1; Dab = NCC[C@H](N)C(=O)O

Molecular target: T1, human IL-23R endogenously expressed on DB cells (CRL-2289) (human, UniProt Q5VWK5 24-629)
T1 sequence (looked up): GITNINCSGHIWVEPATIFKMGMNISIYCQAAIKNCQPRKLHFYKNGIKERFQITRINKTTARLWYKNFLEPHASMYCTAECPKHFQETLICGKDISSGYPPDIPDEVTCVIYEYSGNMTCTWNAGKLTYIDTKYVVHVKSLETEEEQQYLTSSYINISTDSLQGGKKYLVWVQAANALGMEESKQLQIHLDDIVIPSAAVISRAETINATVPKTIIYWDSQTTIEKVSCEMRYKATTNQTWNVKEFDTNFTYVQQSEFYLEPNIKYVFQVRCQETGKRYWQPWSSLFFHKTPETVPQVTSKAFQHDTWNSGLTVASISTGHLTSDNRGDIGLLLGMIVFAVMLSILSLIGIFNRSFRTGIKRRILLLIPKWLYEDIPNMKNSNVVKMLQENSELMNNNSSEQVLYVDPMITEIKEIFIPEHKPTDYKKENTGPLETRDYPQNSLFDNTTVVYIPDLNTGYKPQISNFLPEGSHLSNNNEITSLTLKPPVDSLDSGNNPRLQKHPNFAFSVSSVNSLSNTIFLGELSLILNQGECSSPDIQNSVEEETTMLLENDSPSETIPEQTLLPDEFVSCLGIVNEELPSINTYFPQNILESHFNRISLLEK
Experiment: cell-based or functional assay

| Binder | IC50 (pSTAT3) |
| --- | --- |
| [3Amb]IEWQ[Dab][AEF][2Nal][αMeV]E[Dab][3Pal]-NH2 (lactam (positions not given here); lactam 3-6; not fully specified (bridges)) [Compound 156] | 85.7 pM |
| [4‑Aminomethyl‑phenylacetyl]SEW[Q(pyrrolidin)″][Dab][AEF][2Nal][αMeL]E[Dab]-NH2 (lactam N-10, 3-6; SMILES CC(C)C[C@]1(C)NC(=O)[C@H](Cc2ccc3ccccc3c2)NC(=O)[C@H](Cc2ccc(OCCN)cc2)NC(=O)[C@@H]2CCNC(=O)CC[C@H](NC(=O)[C@H](CO)NC(=O)Cc3ccc(cc3)CNC(=O)CC[C@@H](C(=O)N[C@@H](CCN)C(N)=O)NC1=O)C(=O)N[C@@H](Cc1c[nH]c3ccccc13)C(=O)N[C@@H](CCC(=O)N1CCCC1)C(=O)N2) [Compound 146] | 41.5 nM |
| DESTWQYWWLKR (HELM PEPTIDE1{D.E.S.T.W.Q.Y.W.W.L.K.R.[am]}$PEPTIDE1,PEPTIDE1,2:R3-11:R3$$$V2.0; SMILES CC(C)C[C@@H]1NC(=O)[C@H](Cc2c[nH]c3ccccc23)NC(=O)[C@H](Cc2c[nH]c3ccccc23)NC(=O)[C@H](Cc2ccc(O)cc2)NC(=O)[C@H](CCC(N)=O)NC(=O)[C@H](Cc2c[nH]c3ccccc23)NC(=O)[C@H]([C@@H](C)O)NC(=O)[C@H](CO)NC(=O)[C@@H](NC(=O)[C@@H](N)CC(=O)O)CCC(=O)NCCCC[C@@H](C(=O)N[C@@H](CCCNC(=N)N)C(N)=O)NC1=O) [Ref 3] | > 1 µM |
| DESMWQMWWLKR (HELM PEPTIDE1{[ac].D.E.S.M.W.Q.M.W.W.L.K.R.[am]}$PEPTIDE1,PEPTIDE1,3:R3-12:R3$$$V2.0; SMILES CSCC[C@@H]1NC(=O)[C@H](CO)NC(=O)[C@@H](NC(=O)[C@H](CC(=O)O)NC(C)=O)CCC(=O)NCCCC[C@@H](C(=O)N[C@@H](CCCNC(=N)N)C(N)=O)NC(=O)[C@H](CC(C)C)NC(=O)[C@H](Cc2c[nH]c3ccccc23)NC(=O)[C@H](Cc2c[nH]c3ccccc23)NC(=O)[C@H](CCSC)NC(=O)[C@H](CCC(N)=O)NC(=O)[C@H](Cc2c[nH]c3ccccc23)NC1=O) [Ref 4] | > 1 µM |
| Ac-DESCWCWWLKR-NH2 (lactam 2-10; linker 4-6 via 1,3‑dibromopropan‑2‑one) [Ref 6] | > 1 µM |
| [3Amb]SCWQC[AEF][2Nal][αMeL]ER[3‑Amino‑3‑(3'-pyridyl)propionyl]-NH2 (lactam (positions not given here); linker 3-6 via 1,3‑dibromopropan‑2‑one(3); not fully specified (bridges); printed as [(3-Aminomethyl)benzoyl](1c)*SC(2a)WQC(2a)][Y(2-aminoethoxy)][2-Nal][2-Me-Leu]E(1c)R[3-Amino-3-(3′-pyridyl)propionyl]-[NH2]) [Compound 151] | 10.7 nM |
| Ac-DECWQCWWLKR-NH2 (lactam 2-10; linker 3-6 via 1,3‑dibromopropan‑2‑one) [Ref 5] | > 1 µM |
| [3Amb]SCWQC[AEF][2Nal][αMeL]ER[d3Pal]-NH2 (lactam (positions not given here); linker 3-6 via 1,3‑dibromopropan‑2‑one(3); not fully specified (bridges); printed as [(3-Aminomethyl)benzoyl](1c)*SC(2a)WQC(2a)][Y(2-aminoethoxy)][2-Nal][2-Me-Leu]E(1c)R[{d}[3-(3-Pyridyl)-Ala]]-[NH2]) [Compound 150] | 14.3 nM |
| [4‑Aminomethyl‑phenylacetyl]IEWQ[Dab][AEF][Phe(3,4-Me2)][αMeV]EG[3Pal]-NH2 (lactam (positions not given here); lactam 3-6; not fully specified (bridges); printed as [4-Aminomethyl-phenylacetyl](1c)*IE(2c)WQ[Dab](2c)[Y(2-aminoethoxy)][F(3,4-Me)][2-Me-Val]E(1c)G[3-(3-Pyridyl)-Ala]-[NH2]) [Compound 158] | 0.635 nM |
| [4‑Aminomethyl‑phenylacetyl]IEWQ[Dab][AEF][2Nal][αMeV]E[Dab][3Pal]-NH2 (lactam (positions not given here); lactam 3-6; not fully specified (bridges); printed as [4-Aminomethyl-phenylacetyl](1c)*IE(2c)WQ[Dab](2c)[Y(2-aminoethoxy)][2-Nal][2-Me-Val]E(1c)[Dab][3-(3-Pyridyl)-Ala]-[NH2]) [Compound 157] | 31.8 pM |
| DESSWQSWWLKR (HELM PEPTIDE1{D.E.S.S.W.Q.S.W.W.L.K.R.[am]}$PEPTIDE1,PEPTIDE1,2:R3-11:R3$$$V2.0; SMILES CC(C)C[C@@H]1NC(=O)[C@H](Cc2c[nH]c3ccccc23)NC(=O)[C@H](Cc2c[nH]c3ccccc23)NC(=O)[C@H](CO)NC(=O)[C@H](CCC(N)=O)NC(=O)[C@H](Cc2c[nH]c3ccccc23)NC(=O)[C@H](CO)NC(=O)[C@H](CO)NC(=O)[C@@H](NC(=O)[C@@H](N)CC(=O)O)CCC(=O)NCCCC[C@@H](C(=O)N[C@@H](CCCNC(=N)N)C(N)=O)NC1=O) [Ref 2] | > 1 µM |
| [4‑Aminomethyl‑phenylacetyl″]SCWQC[AEF][2Nal][αMeL]ER[3Pal]-NH2 (lactam N-10; linker 3-6 via 1,3‑dibromopropan‑2‑one(3)) [Compound 147] | 85.8 pM |
| [3Amb]SCWQC[AEF][2Nal][αMeL]ER[Ala(quinolin-3-yl)]-NH2 (lactam (positions not given here); linker 3-6 via 1,3‑dibromopropan‑2‑one(3); not fully specified (bridges); printed as [(3-Aminomethyl)benzoyl](1c)*SC(2a)WQC(2a)][Y(2-aminoethoxy)][2-Nal][2-Me-Leu]E(1c)R[3-(3-Quinolinyl)-Ala]-[NH2]) [Compound 149] | 4.82 nM |
| [3Amb]SCWQC[AEF][2Nal][αMeL]E[Dab][3Pal]-NH2 (lactam (positions not given here); linker 3-6 via 1,3‑dibromopropan‑2‑one(3); not fully specified (bridges); printed as [(3-Aminomethyl)benzoyl](1c)*SC(2a)WQC(2a)[Y(2-aminoethoxy)][2-Nal][2-Me-Leu]E(1c)[Dab][3-(3-Pyridyl)-Ala]-[NH2]) [Compound 148] | 86.8 pM |
| Ac-DESCWQCWWKR-NH2 (lactam 2-10; linker 4-7 via 1,3‑dibromopropan‑2‑one) [Ref 7] | > 1 µM |
